Results: publication PMC9574498
Several values for one entry are separate records, joined by “and”; a condition that tells them apart may be missing. Equal entries are not always repeated.

Target: human P2X7R ballast domain (P2X7BD, residues 395–595) (human) (UniProt Q99572)
Assay: cross-linking

human P2X7R ballast domain (P2X7BD, residues 395–595) (human), sequence (Q99572 395-595): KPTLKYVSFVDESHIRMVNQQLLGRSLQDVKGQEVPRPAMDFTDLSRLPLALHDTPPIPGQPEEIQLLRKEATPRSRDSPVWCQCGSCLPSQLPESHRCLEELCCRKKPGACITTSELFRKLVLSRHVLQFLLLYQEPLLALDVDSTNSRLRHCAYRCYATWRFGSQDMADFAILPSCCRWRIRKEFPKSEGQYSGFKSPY

Q: Which stoichiometry N (Ca^2+-CaM per P2X7BD) does the source give for “human calmodulin (Ca^2+-CaM; apo-CaM in EDTA) (from UniProt P0DP23 1-149) (natural protein)” here?
A: Its stoichiometry N (Ca^2+-CaM per P2X7BD) is 1 and 2.
